Measurements published in patent US12269859B2, “Synthetic immune receptors and methods of use thereof” (Angeles Therapeutics, Inc., priority 2016, dated 2025).

System: target antigen-expressing cell line
Test: Jurkat NFAT-GFP assay, coculture with target cell lines expressing the respective target antigen (summary Table 10A)
Assay type: cell-based, human
Design: key: The signs +/−, +, 2+ etc. after the name of the cell lines indicate the relative degree of positivity on the Jurkat-NFAT-GFP assay as measured by the % GFP positive cells; +: relative degree of positivity on the Jurkat-NFAT-GFP assay as measured by the % GFP positive cells; 2+: relative degree of positivity on the Jurkat-NFAT-GFP assay as measured by the % GFP positive cells
Outline: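 Read-out: % GFP+ cells by FACS. SIR-transduced, puromycin-selected Jurkat NFAT-GFP (IL-2 promoter reporter) cocultured ~4–18 h with target line, E:T ~1:2; parental cells as control; graded +/−, +, 2+ relative to parental.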

Molecule	NFAT-GFP ASSAY Positive Cell lines (coculture with HEL cells)	NFAT-GFP ASSAY Positive Cell lines (coculture with NALM6 cells)	NFAT-GFP ASSAY Positive Cell lines (coculture with RAJI cells)	NFAT-GFP ASSAY Positive Cell lines (coculture with U266 cells)	further results
010417-U02 (protein) MALPVTALLLPLALLLHAARPLEGKPIPNPLLGLDSTGSGEDLKNVFPPEVAVFEPSKAEIAHTQKATLVCLATGFYPDHVELSWWVNGKEVHSGVCTDPQPLKEQPALNDSRYCLSSRLRVSATFWQNPRNHFRCQVQFYGLSENDEWTQDRAKPVTQIVSAEAWGRADCGITSASYHQGVLSATILYEILLGKATLYAVLVSALVLMAMVKRKDSRGRAKRSGSGATNFSLLKQAGDVEENPGPTSMALPVTALLLPLALLLHAARPDQIVLTQSPAIMSASPGEKVTISCSASSSVSYMYWYQQKPGSSPKPWIYRTSNLASGVPARFSGSGSGTSYSLTISNMEAEDAAAYYCQQYHSYPTTFGGGTKLEVKGGGGSGGGGSGGGGSEVQLVESGGGLVQPKGSLKLSCAASGFSFNTYAMNWVRQAPGKGLEWIAHIRSKSNNFATYYADSVKDRFSISRDASENILFLQMNNLKTEDTAMYYCVRQGGDFPMDYWGQGTSVTVSSTREAAAKEIVLTQSPATLSLSPGERATLSCSASSSVSYMHWYQQKPGQAPRLLIYDTSKLASGIPARFSGSGSGTDFTLTISSLEPEDVAVYYCFQGSVYPFTFGQGTKLEIKRGGGGSGGGGSGGGGSQVQLQESGPGLVKPSQTLSLTCTVSGGSISTSGMGVGWIRQHPGKGLEWIGHIWWDDDKRYNPALKSRVTISVDTSKNQFSLKLSSVTAADTAVYYCARMELWSYYFDYWGQGTLVTVSSTREQKLISEEDGSGIQNPDPAVYQLRDSKSSDKSVCLFTDFDSQTNVSQSKDSDVYITDKCVLDMRSMDFKSNSAVAWSNKSDFACANAFNNSIIPEDTFFPSSDVPCDVKLVEKSFETDTNLNFQNLSVIGFRILLLKVAGFNLLMTLRLWSSRAKRSGSGVKQTLNFDLLKLAGDVESNPGPSRGHMTEYKPTVRLATRDDVPRAVRTLAAAFADYPATRHTVDPDRHIERVTELQELFLTRVGLDIGKVWVADDGAAVAVWTTPESVEAGAVFAEIGPRMAELSGSRLAAQQQMEGLLAPHRPKEPAWFLATVGVSPDHQGKGLGSAVVLPGVEAAERAGVPAFLETSAPRNLPFYERLGFTVTADVEVPEGPRTWCMTRKPGA	+/−	+	RAJI (+), NALM6		
010417-Y05 (protein) MALPVTALLLPLALLLHAARPLEGKPIPNPLLGLDSTGSGEDLKNVFPPEVAVFEPSKAEIAHTQKATLVCLATGFYPDHVELSWWVNGKEVHSGVCTDPQPLKEQPALNDSRYCLSSRLRVSATFWQNPRNHFRCQVQFYGLSENDEWTQDRAKPVTQIVSAEAWGRADCGITSASYHQGVLSATILYEILLGKATLYAVLVSALVLMAMVKRKDSRGRAKRSGSGATNFSLLKQAGDVEENPGPTSMALPVTALLLPLALLLHAARPDQIVLTQSPAIMSASPGEKVTISCSASSSVSYMYWYQQKPGSSPKPWIYRTSNLASGVPARFSGSGSGTSYSLTISNMEAEDAAAYYCQQYHSYPTTFGGGTKLEVKGGGGSGGGGSGGGGSEVQLVESGGGLVQPKGSLKLSCAASGFSFNTYAMNWVRQAPGKGLEWIAHIRSKSNNFATYYADSVKDRFSISRDASENILFLQMNNLKTEDTAMYYCVRQGGDFPMDYWGQGTSVTVSSTREAAAKEIVMTQSPATLSLSPGERATLSCRASQDISKYLNWYQQKPGQAPRLLIYHTSRLHSGIPARFSGSGSGTDYTLTISSLQPEDFAVYFCQQGNTLPYTFGQGTKLEIKGGGGSGGGGSGGGGSQVQLQESGPGLVKPSETLSLTCTVSGVSLPDYGVSWIRQPPGKGLEWIGVIWGSETTYYNSSLKSRVTISKDNSKNQVSLKLSSVTAADTAVYYCAKHYYYGGSYAMDYWGQGTLVTVSSTREQKLISEEDGSGIQNPDPAVYQLRDSKSSDKSVCLFTDFDSQTNVSQSKDSDVYITDKCVLDMRSMDFKSNSAVAWSNKSDFACANAFNNSIIPEDTFFPSSDVPCDVKLVEKSFETDTNLNFQNLSVIGFRILLLKVAGFNLLMTLRLWSSRAKRSGSGVKQTLNFDLLKLAGDVESNPGPSRGHMTEYKPTVRLATRDDVPRAVRTLAAAFADYPATRHTVDPDRHIERVTELQELFLTRVGLDIGKVWVADDGAAVAVWTTPESVEAGAVFAEIGPRMAELSGSRLAAQQQMEGLLAPHRPKEPAWFLATVGVSPDHQGKGLGSAVVLPGVEAAERAGVPAFLETSAPRNLPFYERLGFTVTADVEVPEGPRTWCMTRKPGA	(+), HEL (+)	(+), HEL (+)	RAJI (+), NALM6		
112916-C01 (protein, Polynucleotide encoding a Synthetic Immune Receptor (SIR)) MALPVTALLLPLALLLHAARPDVVMTQTPLTLSVTIGQPASISCKSSQSLLDSDGKTYLHWLLQRPGQSPKRLIFLVSKLDSGVPDRFTGSGSGTDFTLKISRVEAEDLGVYYCWQGTHFPQTFGGGTKLEIKLEGKPIPNPLLGLDSTGSGEDLKNVFPPEVAVFEPSKAEIAHTQKATLVCLATGFYPDHVELSWWVNGKEVHSGVCTDPQPLKEQPALNDSRYCLSSRLRVSATFWQNPRNHFRCQVQFYGLSENDEWTQDRAKPVTQIVSAEAWGRADCGITSASYHQGVLSATILYEILLGKATLYAVLVSALVLMAMVKRKDSRGRAKRSGSGATNFSLLKQAGDVEENPGPTSMDWIWRILFLVGAATGAHSFEVQLQESGPDLVKPSQSLSLTCTVTGYSITSGYSWHWIRQFPGNKLEWMGYIHYSGDTDYNPSLKSRFSITRDTSKNQFFLQLNSVTTEDTATYYCATPGGFVYWGQGTLVTVSSTREQKLISEEDGSGIQNPDPAVYQLRDSKSSDKSVCLFTDFDSQTNVSQSKDSDVYITDKCVLDMRSMDFKSNSAVAWSNKSDFACANAFNNSIIPEDTFFPSSDVPCDVKLVEKSFETDTNLNFQNLSVIGFRILLLKVAGFNLLMTLRLWSSRAKRSGSGVKQTLNFDLLKLAGDVESNPGPSRGHMTEYKPTVRLATRDDVPRAVRTLAAAFADYPATRHTVDPDRHIERVTELQELFLTRVGLDIGKVWVADDGAAVAVWTTPESVEAGAVFAEIGPRMAELSGSRLAAQQQMEGLLAPHRPKEPAWFLATVGVSPDHQGKGLGSAVVLPGVEAAERAGVPAFLETSAPRNLPFYERLGFTVTADVEVPEGPRTWCMTRKPGA				U266 (+/−), L363	NFAT-GFP ASSAY Positive Cell lines (coculture with L363 cells): (+)
101817-E05 (protein) MALPVTALLLPLALLLHAARPQSVVTQPPSVSAAPGQKVTISCSGSSSNIGNNYVSWYQQLPGTAPKLLIYDNNKRPSGIPDRFSASKSGTSATLGITGLQTRDEADYYCGTWDSSLSAWVFGGGTKLTVLGLEIQNPDPAVYQLRDSKSSDKSVCLFTDFDSQTNVSQSKDSDVYITDKCVLDMRSMDFKSNSAVAWSNKSDFACANAFNNSIIPEDTFFPSSDVPCDVKLVEKSFETDTNLNFQNLSVIGFRILLLKVAGFNLLMTLRLWSSRAKRSGSGVKQTLNFDLLKLAGDVESNPGPTSMDWIWRILFLVGAATGAHSFEQVQLVQSGAEVKKPGSSVKVSCKASGDTFSSYYISWVRQAPGQGLEWMGRIIPILGIANYAQKYQGRVTLSADKSTSTSYMELNSLSSEDTAVYYCALDWSYSIDYWGQGTLVTVSSTREDLKNVFPPEVAVFEPSKAEIAHTQKATLVCLATGFYPDHVELSWWVNGKEVHSGVCTDPQPLKEQPALNDSRYCLSSRLRVSATFWQNPRNHFRCQVQFYGLSENDEWTQDRAKPVTQIVSAEAWGRADCGITSASYHQGVLSATILYEILLGKATLYAVLVSALVLMAMVKRKDSRGRAKRSGSGATNFSLLKQAGDVEENPGPSRGHMTEYKPTVRLATRDDVPRAVRTLAAAFADYPATRHTVDPDRHIERVTELQELFLTRVGLDIGKVWVADDGAAVAVWTTPESVEAGAVFAEIGPRMAELSGSRLAAQQQMEGLLAPHRPKEPAWFLATVGVSPDHQGKGLGSAVVLPGVEAAERAGVPAFLETSAPRNLPFYERLGFTVTADVEVPEGPRTWCMTRKPGA				U266(+/−)	
022817-U05 (protein, Polynucleotide encoding a Synthetic Immune Receptor (SIR)) MALPVTALLLPLALLLHAARPDIQMNQSPSSLSASLGDTITITCHASQNINVWLSWYQQKPGNIPKLLIYKASNLHTGVPSRFSGSGSGTGFTITISSLQPEDIATYYCQQGQSYPWTFGGGTKLEIKRLEGKPIPNPLLGLDSTGSGEDLKNVFPPEVAVFEPSKAEIAHTQKATLVCLATGFYPDHVELSWWVNGKEVHSGVCTDPQPLKEQPALNDSRYCLSSRLRVSATFWQNPRNHFRCQVQFYGLSENDEWTQDRAKPVTQIVSAEAWGRADCGITSASYHQGVLSATILYEILLGKATLYAVLVSALVLMAMVKRKDSRGRAKRSGSGATNFSLLKQAGDVEENPGPTSMDWIWRILFLVGAATGAHSFEEVQLQQSGPELVKPGASVKISCKASGYSFTGYFMNWVKQSHGKSLEYIGRFNPYNGETLYNQKFKGKATLTVDKSSSTVHMELLSVTSEDSAVYYCGRSGNDDAMDYWGQGTSVTVSSATREQKLISEEDGSGIQNPDPAVYQLRDSKSSDKSVCLFTDFDSQTNVSQSKDSDVYITDKCVLDMRSMDFKSNSAVAWSNKSDFACANAFNNSIIPEDTFFPSSDVPCDVKLVEKSFETDTNLNFQNLSVIGFRILLLKVAGFNLLMTLRLWSSRAKRSGSGVKQTLNFDLLKLAGDVESNPGPSRGHMTEYKPTVRLATRDDVPRAVRTLAAAFADYPATRHTVDPDRHIERVTELQELFLTRVGLDIGKVWVADDGAAVAVWTTPESVEAGAVFAEIGPRMAELSGSRLAAQQQMEGLLAPHRPKEPAWFLATVGVSPDHQGKGLGSAVVLPGVEAAERAGVPAFLETSAPRNLPFYERLGFTVTADVEVPEGPRTWCMTRKPGA					NFAT-GFP ASSAY Positive Cell lines (coculture with Jurkats-TCRgd-SIR cells): Jurkats-TCRgd-SIR
